The values that follow come from patent US8629107B2, “Genes and proteins associated with angiogenesis and uses thereof” (National Jewish Health, priority 2005, dated 2014).

Assay [1] deals with MB114 cells. Kind of assay: cell proliferation, [3H]thymidine incorporation assay. It is filed as cell-based, murine. The conditions noted are these: serum-starved MB114 cells stably expressing the transgene vs GFP, 24 h, 37° C. On the procedure: (§1) The effect putative angiogenic agents had on MB114 cell activities were determined as follows: (i) cell proliferation using a [^3H]thymidine incorporation assay as described (Albig et al, 2006; Albig and Schiemann, 2004; Albig and Schiemann, 2005); (ii) cell invasion through Matrigel matrices using a modified Boyden-chamber assay as described (Albig et al, 2006; Albig and Schiemann, 2004; Albig and Schiemann, 2005); (iii) p38 MAPK phosphorylation using immunoblot analyses as described (Albig et al, 2006; Albig and Schiemann, 2004; Albig and Schiemann, 2005); (iv) angiogenic sprouting in rat tail collagen matrices as described (Albig et al, 2006; Albig and Schiemann, 2004); and (v) Hes1- and SBE-driven luciferase reporter gene assays as described (Albig et al, 2006; Albig and Schiemann, 2004; Albig and Schiemann, 2005).
(§2) FIG. 1A show results from an experiment in which serum-starved MB114 cells, stably expressing either GFP or various putative angiogenic agents, were stimulated in the absence or presence of either bFGF (50 ng/ml) or EGF (10 ng/ml) for 24 h at 37° C. Differences in MB114 cell DNA synthesis was determined by measuring [^3H]thymidine incorporation into cellular DNA. […] In this experiment, invasion of MB114 cells expressing either GFP or various putative angiogenic agents through synthetic basement membranes was determined over 48 h using a modified Boyden-chamber assay.

For assay [2], the system named is MB114 cells. The experiment in a line: cell invasion through Matrigel matrices, modified Boyden-chamber assay. The conditions noted are these: MB114 cells stably expressing the transgene vs GFP; 48 h. It is filed as cell-based, murine. As for the experimental part:
as §1, §2

The next assay has as its system p38 MAPK. The experiment in a line: p38 MAPK phosphorylation by immunoblot analyses. It is filed as cell-based, murine. The conditions noted are these: serum-starved MB114 cells expressing the transgene; bFGF 50 ng/ml or EGF 10 ng/ml, 0-15 min. As for the experimental part:
as §1
The inventors' previous studies have associated stimulation of p38 MAPK activity with angiogenesis of MB114 cells and, conversely, inhibition of p38 MAPK activity with angiostasis of MB114 cells (Albig et al, 2006; Albig and Schiemann, 2004; Albig and Schiemann, 2005). […] The phosphorylation status of p38 MAPK was determined by immunoblotting whole cell lysates with phospho-specific p38 MAPK antibodies (p38-P). Differences in protein loading were monitored by reprobing stripped membranes with anti-p38 MAPK polyclonal antibodies (p38).
For orientation: A western blot detects proteins with antibodies after separation by electrophoresis.

Assay [3] deals with Smad2/3-binding element (SBE). The experiment in a line: SBE-driven luciferase reporter gene assay in MB114 cells. It is filed as cell-based, murine. Particulars: MAGP-2-expressing vs GFP-expressing MB114 cells; TGF-β1 0-5 ng/ml overnight. On the procedure:
as §1
To further investigate the impact of MAGP-2 on Notch1 processing and NICD accumulation, the inventors took advantage of recent findings showing that the ability of TGF-β to induce Hes1 promoter activity requires Smad3 to interact physically with NICD (Blokzijl et al, 2003), a reaction that is dispensable for canonical Smad3-mediated signaling stimulated by TGF-β (Blokzijl et al, 2003). […]
On the technique in general: Reporter assays use an easily measured gene product as a stand-in for the process of interest.

The subject of the next assay is MCA102 fibrosarcomas. Kind of assay: MCA102 fibrosarcomas produced in mice. It is filed as in vivo. Particulars: unpublished observation.
Assay [4] deals with vessel formation and infiltration into Matrigel plugs. Kind of assay: Matrigel plug implantation assay. It is filed as in vivo, C57BL/6 mice. Particulars: 1 μg/ml with bFGF 50 ng/ml vs bFGF alone; subcutaneous, C57BL/6 mice, day 10. On the procedure:
The effect of MAGP-2 on vessel formation and infiltration into Matrigel plugs implanted into genetically normal mice was determined as described (Albig et al, 2006). Briefly, phenol red-free Matrigel (BD biosciences, Bedford, Mass.) was mixed with PBS (diluent), bFGF (50 or 300 ng/ml; R&D Systems, Minneapolis, Minn.), or recombinant MAGP-2 (1 μg/ml) together with bFGF (50 ng/ml), and the resulting mixtures were injected twice subcutaneously in the ventral groin area (400 μl/injection) of C57BL/6 mice. The mice were sacrificed 10 days post-implantation and the Matrigel plugs were dissected, fixed overnight in 10% formalin, and sectioned in the National Jewish Histology Laboratory. Afterward, Masson's trichrome staining was performed to visualize infiltrating vessels, which were quantified under a light microscope by determining the average number of vessels present in 5 random fields (200× magnification). Only those fields that contained at least one vessel in the area underlying the skin were tallied. Two mice were used per experimental condition and this experiment was performed three times in its entirety. All animal studies were performed according to protocol procedures approved by the Animal Care and Use Committee at National Jewish Medical and Research Center.
The inventors tested this hypothesis by utilizing the Matrigel plug implantation assay, which monitors the ability of various angiogenic agents to alter vessel formation and infiltration into Matrigel plugs implanted subcutaneously into normal mice. […] MAGP-2 purity was monitored by coomassie staining, and by immunoblotting with anti-FLAG M2 monoclonal antibodies (FIG. 2A; right panel). rMAGP-2 (1 μg/ml) stimulated angiogenic sprouting of quiescent MB114 cell monolayers (FIG. 2A; left panel). […] Afterward, the Matrigel plugs were fixed, sectioned, and stained with Masson's trichrome to visualize infiltrating blood vessels (FIG. 2B; right panels; arrows denote blood vessels), which were quantified by manual counting under a light microscope. […]

B1: MAGP-2: secreted glycoprotein (25 kDa); stably expressed in MB114 cells by bicistronic retroviral transduction, Myc-His tagged (protein)
chain: QRGDDVPETFTDDPNLVNDPSTDDTALADITPSTDDLAGDKNATAECRDEKFACTRLYSVHRPVRQCVHQSCFTSLRRMYIINNEICSRLVCKEHEAMKDELCRQMAGLPPRRLRRSNYFRLPPCENMNLQRPDGL
modifications: left off: small tags and cut ends
notes: secreted glycoprotein (25 kDa); stably expressed in MB114 cells by bicistronic retroviral transduction, Myc-His tagged
For B1, the “proliferative response of MB114 cells to EGF ([3H]thymidine incorporation into cellular DNA)” value with MB114 cells [1] (EGF 10 ng/ml) is listed as “significantly enhanced”. In addition, the “proliferative response of MB114 cells to bFGF ([3H]thymidine incorporation into cellular DNA)” value in the assay with MB114 cells [1] (bFGF 50 ng/ml) is reported as “significantly enhanced”. Further, the “MB114 cell invasion through synthetic basement membranes” value in the assay with MB114 cells [2] was “significantly induced”. In addition, the “p38 MAPK phosphorylation” value in the assay with p38 MAPK is “significantly enhanced”. Besides, the “TGF-β stimulation of SBE-luciferase activity” value in assay [3] was “no effect”. For the same molecule, in the assay on MCA102 fibrosarcomas, the “growth of MCA102 fibrosarcomas produced in mice” value is given as “significantly increase” and the “vascularization of MCA102 fibrosarcomas produced in mice” value is given as “significantly increase”.

B2: rMAGP-2: recombinant FLAG-tagged MAGP-2 purified from bacterial cell extracts by anti-FLAG chromatography (protein, UniProt Q9QZJ6 29-164, looked up)
Microfibrillar-associated …: QRGDDVPETFTDDPNLVNDPSTDDTALADITPSTDDLAGDKNATAECRDEKFACTRLYSVHRPVRQCVHQSCFTSLRRMYIINNEICSRLVCKEHEAMKDELCRQMAGLPPRRLRRSNYFRLPPCENMNLQRPDGL
modifications: FLAG tag
notes: recombinant FLAG-tagged MAGP-2 purified from bacterial cell extracts by anti-FLAG chromatography
As for B2, the “development and infiltration of vessels into Matrigel plugs” value in assay [4] was “significantly increased”.
